Measured values published in patent US7067277 (H LUNDBECK A S, dated 2006).
Where a chain is given by its changes, count along the chain named.

T1: human 5HT1A receptor (human, UniProt P08908 1-422)
T1 sequence (looked up): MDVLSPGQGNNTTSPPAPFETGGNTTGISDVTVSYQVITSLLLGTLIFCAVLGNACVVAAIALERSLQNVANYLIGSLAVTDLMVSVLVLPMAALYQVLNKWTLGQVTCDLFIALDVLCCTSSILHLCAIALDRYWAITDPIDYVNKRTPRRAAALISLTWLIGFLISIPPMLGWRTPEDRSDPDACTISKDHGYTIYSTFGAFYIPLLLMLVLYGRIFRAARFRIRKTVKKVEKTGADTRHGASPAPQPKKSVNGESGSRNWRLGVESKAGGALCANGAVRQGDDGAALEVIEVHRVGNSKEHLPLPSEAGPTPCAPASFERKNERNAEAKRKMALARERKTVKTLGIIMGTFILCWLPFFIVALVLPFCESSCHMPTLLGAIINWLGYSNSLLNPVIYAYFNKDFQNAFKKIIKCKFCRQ

T2: human α1A adrenergic receptor (human, UniProt P35348 1-466)
T2 sequence (looked up): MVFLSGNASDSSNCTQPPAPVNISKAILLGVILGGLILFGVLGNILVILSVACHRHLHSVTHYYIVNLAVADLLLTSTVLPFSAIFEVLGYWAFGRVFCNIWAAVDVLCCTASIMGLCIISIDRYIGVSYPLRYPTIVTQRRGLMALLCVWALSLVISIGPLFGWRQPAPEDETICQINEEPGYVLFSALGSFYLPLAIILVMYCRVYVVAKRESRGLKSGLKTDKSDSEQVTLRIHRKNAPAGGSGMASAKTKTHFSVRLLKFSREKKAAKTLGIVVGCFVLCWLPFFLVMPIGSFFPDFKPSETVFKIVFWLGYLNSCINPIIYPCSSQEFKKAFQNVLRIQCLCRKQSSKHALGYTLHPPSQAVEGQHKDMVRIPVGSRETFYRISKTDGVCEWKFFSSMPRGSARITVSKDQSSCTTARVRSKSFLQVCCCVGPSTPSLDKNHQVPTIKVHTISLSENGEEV

T3: rat GALR2 receptor (rat, UniProt O08726 1-372)
T3 sequence (looked up): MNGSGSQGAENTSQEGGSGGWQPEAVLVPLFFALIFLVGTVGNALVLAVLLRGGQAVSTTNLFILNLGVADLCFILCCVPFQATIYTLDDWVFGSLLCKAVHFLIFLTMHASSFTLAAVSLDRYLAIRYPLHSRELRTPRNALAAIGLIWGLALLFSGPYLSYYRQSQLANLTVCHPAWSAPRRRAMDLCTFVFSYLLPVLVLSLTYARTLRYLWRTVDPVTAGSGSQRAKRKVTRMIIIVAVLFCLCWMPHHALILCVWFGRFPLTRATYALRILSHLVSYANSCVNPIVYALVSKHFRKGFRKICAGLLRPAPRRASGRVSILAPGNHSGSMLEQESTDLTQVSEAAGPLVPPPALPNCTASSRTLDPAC

T4: human 5HT1F receptor (human, UniProt P30939 1-366)
T4 sequence (looked up): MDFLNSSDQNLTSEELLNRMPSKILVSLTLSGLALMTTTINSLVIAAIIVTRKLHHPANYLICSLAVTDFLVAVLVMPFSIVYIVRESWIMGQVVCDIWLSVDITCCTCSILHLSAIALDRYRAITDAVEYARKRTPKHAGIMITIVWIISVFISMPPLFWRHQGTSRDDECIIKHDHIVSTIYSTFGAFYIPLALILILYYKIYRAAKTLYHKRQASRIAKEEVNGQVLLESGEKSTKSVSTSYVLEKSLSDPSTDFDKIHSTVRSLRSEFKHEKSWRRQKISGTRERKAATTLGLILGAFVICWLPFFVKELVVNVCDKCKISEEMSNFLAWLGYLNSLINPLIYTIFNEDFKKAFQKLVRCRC

B1: C. elegans Gαq/z5 (other)
chain: MACCLSEEAREQKRINQEIEKQLQRDKRNARRELKLLLLGTGESGKSTFIKQMRIIHGQGYSEEDKRAHIRLVYQNVFMAIQSMIRAMDTLDIKFGNESEELQEKAAVVREVDFESVTSFEEPYVSYIKELWEDSGIQECYDRRREYQLTDSAKYYLSDLRRLAVPDYLPTEQDILRVRVPTTGIIEYPFDLEQIIFRMVDVGGQRSERRKWIHCFENVTSIMFLVALSEYDQVLVECDNENRMEESKALFRTIITYPWFTNSSVILFLNKKDLLEEKILYSHLADYFPEYDGPPRDPIAAREFILKMFVDLNPDADKIIYSHFTCATDTENIRFVFAAVKDTILQHNLKYIGLC
B2: C. elegans Gαq/z9 (other)
chain: B1 chain with H347N
B3: Human Gαq/z5 (Ala→Ser substitution at position 171) (other)
chain: MTLESIMACCLSEEAKEARRINDEIERQLRRDKRDARRELKLLLLGTGESGKSTFIKQMRIIHGSGYSDEDKRGFTKLVYQNIFTAMQAMIRAMDTLKIPYKYEHNKAHAQLVREVDVEKVSAFENPYVDAIKSLWNDPGIQECYDRRREYQLSDSTKYYLNDLDRVADPSYLPTQQDVLRVRVPTTGIIEYPFDLQSVIFRMVDVGGQRSERRKWIHCFENVTSIMFLVALSEYDQVLVESDNENRMEESKALFRTIITYPWFQNSSVILFLNKKDLLEEKIMYSHLVDYFPEYDGPQRDAQAAREFILKMFVDLNPDSDKIIYSHFTCATDTENIRFVFAAVKDTILQLNLKYIGLC

What was measured:
Assay in all cases: cell-based or functional assay
[1] = target: human dopamine D1 receptor (human, UniProt P21728 1-446)
human dopamine D1 receptor, sequence (P21728 whole entry): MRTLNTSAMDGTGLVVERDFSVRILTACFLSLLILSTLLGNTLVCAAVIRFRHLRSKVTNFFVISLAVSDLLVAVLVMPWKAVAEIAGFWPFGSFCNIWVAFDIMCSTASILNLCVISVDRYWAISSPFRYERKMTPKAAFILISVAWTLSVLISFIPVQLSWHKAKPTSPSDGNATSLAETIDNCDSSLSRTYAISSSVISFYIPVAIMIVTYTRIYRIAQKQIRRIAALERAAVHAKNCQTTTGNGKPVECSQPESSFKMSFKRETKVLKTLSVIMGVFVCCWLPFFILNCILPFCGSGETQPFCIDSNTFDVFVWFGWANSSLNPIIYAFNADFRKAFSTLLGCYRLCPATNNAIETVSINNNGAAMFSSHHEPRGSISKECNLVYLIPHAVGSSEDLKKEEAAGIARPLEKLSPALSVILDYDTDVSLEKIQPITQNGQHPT

rat NTR1 receptor = rat NTR1 receptor (rat, UniProt P20789 1-424)
rat NTR1 receptor, sequence (P20789 whole entry): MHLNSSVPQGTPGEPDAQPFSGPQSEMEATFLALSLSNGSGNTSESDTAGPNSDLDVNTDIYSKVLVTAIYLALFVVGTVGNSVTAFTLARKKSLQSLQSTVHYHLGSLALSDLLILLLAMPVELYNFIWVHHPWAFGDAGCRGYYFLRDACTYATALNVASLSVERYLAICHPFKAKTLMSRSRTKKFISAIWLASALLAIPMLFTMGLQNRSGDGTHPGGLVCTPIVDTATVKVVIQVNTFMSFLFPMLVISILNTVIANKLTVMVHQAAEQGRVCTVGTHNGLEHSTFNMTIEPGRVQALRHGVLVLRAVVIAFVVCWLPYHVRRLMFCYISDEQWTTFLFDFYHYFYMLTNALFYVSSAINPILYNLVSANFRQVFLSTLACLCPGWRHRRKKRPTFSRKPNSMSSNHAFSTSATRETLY

human 5HT1A receptor = target: T1, human 5HT1A receptor
[2] = target: T2, human α1A adrenergic receptor
rat GALR2 receptor = target: T3, rat GALR2 receptor
human 5HT1F receptor = target: T4, human 5HT1F receptor

| Binder | max Ca2+ signal, COS-7, FLIPR; 100 µM dopamine [1] | max Ca2+ signal, COS-7, FLIPR; agonist NT (rat NTR1 receptor) | max Ca2+ signal, COS-7, FLIPR; agonist 5HT (human 5HT1A receptor) | max Ca2+ signal, COS-7, FLIPR; agonist NE [2] | max Ca2+ signal, COS-7, FLIPR; agonist GAL (rat GALR2 receptor) | max Ca2+ signal, COS-7, FLIPR; agonist 5HT (human 5HT1F receptor) |
| --- | --- | --- | --- | --- | --- | --- |
| B1 | 4830 fluorescence units | 14500 fluorescence units | 2000 fluorescence units | 9820 fluorescence units | 4200 fluorescence units | 243 fluorescence units |
| B2 |  | 6110 fluorescence units | 3140 fluorescence units | 6600 fluorescence units | 4470 fluorescence units | 384 fluorescence units |
| B3 | 0 fluorescence units | 11200 fluorescence units | 478 fluorescence units | 14200 fluorescence units | 4860 fluorescence units | 0 fluorescence units |
